Reference: patent publication US20160075790A1 (Bristol-Myers Squibb, published 2016)
One block for each molecule: values may come before it.

Tests used:
mouse CD40L (mouse) = mouse CD40L (mouse) (UniProt P27548); test: cell-based or functional assay
[1] = biological target: human CD64 (FcγRI) (human) (UniProt P12314); test: SPR; captured on biot-IZ-hCD40L surface, soluble FcR as analyte; pH 7.1
[2] = biological target: human CD16a (FcγRIIIa) (human) (UniProt P08637); test: as above
human FcRn (human) = human FcRn (human) (UniProt P55899); test: SPR; captured on biot-IZ-hCD40L surface, soluble FcR as analyte; pH 6
[3] = biological target: human CD32a (FcγRIIa), soluble (human) (UniProt P12318); test: SPR; biphasic binding, steady state fit to the dominant binding event; pH 7.1
[4] = biological target: cynomolgus monkey CD40L on cells (cynomolgus monkey) (UniProt G7Q1T4); test: in vivo receptor occupancy on monkey PBMC, 20 mg/kg IV, through 1032 h
[5] = biological target: cynomolgus monkey CD40L on cells (cynomolgus monkey) (UniProt G7Q1T4); test: in vivo receptor occupancy on monkey PBMC, 20 mg/kg IV, 48 h post-dose
[6] = biological target: T1, human CD40L, membrane-bound on cells (human, UniProt P29965 1-261); test: cell-based or functional assay
T1 sequence: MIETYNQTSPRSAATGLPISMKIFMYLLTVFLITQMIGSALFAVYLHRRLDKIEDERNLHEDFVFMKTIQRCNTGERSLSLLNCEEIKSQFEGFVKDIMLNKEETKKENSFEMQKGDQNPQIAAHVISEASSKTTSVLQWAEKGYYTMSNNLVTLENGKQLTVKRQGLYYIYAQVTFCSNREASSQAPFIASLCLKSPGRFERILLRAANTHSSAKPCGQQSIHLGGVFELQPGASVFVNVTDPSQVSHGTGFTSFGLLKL

[7] = biological target: human isoleucine zipper-CD40L (IZ-hCD40L) (human) (UniProt P29965); test: cell-based or functional assay
[8] = biological target: T2, biotinylated IZ-hCD40L (biot-IZ-hCD40L) (human, UniProt P29965 113-261, biotinylated); test: SPR (Biacore), 25 C, 1:1 Langmuir; monovalent dAb
T2 construct: biotinylated version of IZ-hCD40L captured on streptavidin chip; also called biotinylated CD40L; not shown: N-terminal isoleucine zipper motif
T2 sequence: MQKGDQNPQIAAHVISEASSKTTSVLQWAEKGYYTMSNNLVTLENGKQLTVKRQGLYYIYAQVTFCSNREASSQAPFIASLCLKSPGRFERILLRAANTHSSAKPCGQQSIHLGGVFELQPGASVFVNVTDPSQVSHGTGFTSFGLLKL
Text: The SPR experiments utilized a hCD40L construct containing an N-terminal isoleucine zipper motif (IZ-hCD40L) which facilitates the specific assembly of the CD40L molecule into the native trimeric form.

[9] = biological target: T1, human CD40L, membrane-bound on cells; test: cell-based or functional assay; remark: listed apart in the source
[10] = biological target: T3, human isoleucine zipper-CD40L (IZ-hCD40L) (human, UniProt P29965 113-261); test: cell-based or functional assay
T3 sequence: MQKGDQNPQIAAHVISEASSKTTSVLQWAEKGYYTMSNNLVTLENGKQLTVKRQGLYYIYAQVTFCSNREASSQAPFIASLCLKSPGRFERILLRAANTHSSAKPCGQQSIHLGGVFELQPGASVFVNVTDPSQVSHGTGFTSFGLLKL

Chain of mouse CD40L (mouse) (P27548 112-260 limits assumed): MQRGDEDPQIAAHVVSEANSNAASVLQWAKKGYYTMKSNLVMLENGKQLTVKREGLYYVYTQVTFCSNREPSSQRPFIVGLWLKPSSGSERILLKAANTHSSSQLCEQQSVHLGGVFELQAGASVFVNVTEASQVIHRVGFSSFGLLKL
Chain of human CD64 (FcγRI) (human) (P12314 16-288 limits assumed): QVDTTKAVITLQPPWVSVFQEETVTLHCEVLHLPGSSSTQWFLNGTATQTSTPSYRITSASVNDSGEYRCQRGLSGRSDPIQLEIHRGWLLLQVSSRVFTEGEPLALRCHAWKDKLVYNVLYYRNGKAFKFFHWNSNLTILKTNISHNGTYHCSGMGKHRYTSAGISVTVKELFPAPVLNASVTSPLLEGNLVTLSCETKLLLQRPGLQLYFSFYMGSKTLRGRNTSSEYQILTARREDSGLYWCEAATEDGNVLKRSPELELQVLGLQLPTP
Chain of human CD32a (FcγRIIa), soluble (human) (P12318 36-218 limits assumed): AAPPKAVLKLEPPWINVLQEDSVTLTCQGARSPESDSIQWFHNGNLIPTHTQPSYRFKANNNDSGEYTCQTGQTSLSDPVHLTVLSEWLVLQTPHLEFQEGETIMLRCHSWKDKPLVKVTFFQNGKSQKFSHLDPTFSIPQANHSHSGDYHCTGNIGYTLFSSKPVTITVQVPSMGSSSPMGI
Chain of human CD16a (FcγRIIIa) (human) (P08637 17-208 limits assumed): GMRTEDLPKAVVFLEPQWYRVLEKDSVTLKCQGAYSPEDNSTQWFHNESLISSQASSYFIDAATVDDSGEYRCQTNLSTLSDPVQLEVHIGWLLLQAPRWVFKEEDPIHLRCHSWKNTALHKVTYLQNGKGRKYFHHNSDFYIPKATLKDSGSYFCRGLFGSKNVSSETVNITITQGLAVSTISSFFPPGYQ

CHO-CD40L B cell Assay EC50 (mouse CD40L (mouse)): 0.6 nM
CHO-CD40L DC Assay IL-6 EC50 (mouse CD40L (mouse)): 0.6 nM
Trimer B cell Assay EC50 (mouse CD40L (mouse)): 1.7 nM
Molecule: MR-1 (antibody)

Kd [1]: < 0.05 nM
Kd [2]: 240 nM
Kd (human FcRn (human)): 590 nM
Kd [3]: 100 nM
receptor occupancy [4]: > 97%
mean peak receptor occupancy [5]: 100%
Molecule: 5c8-IgG1 (antibody)

CHO-CD40L B cell Assay EC50 [6]: 2 nM
CHO-CD40L DC Assay IL-12 EC50 [6]: 2 nM
T-B MLR EC50 [6]: 0.54 nM
T-B MLR IL-6 EC50 [6]: 0.23 nM
Trimer B cell Assay EC50 [7]: 8 nM
Molecule: 5c8 mAb (antibody)

Kd [8]: 7.8 nM
koff [8]: 0.0081 s⁻¹
kon [8]: 1e+06 M⁻¹ s⁻¹
CHO-hCD40L-driven DC Activation IL-12 EC50 [9]: 53 nM
hIZCD40L-driven Human B Cell Proliferation EC50 [10]: 20 nM
B1: BMS2h-572-633 (other)
VH: EVQLLESGGGLVQPGGSLRLSCAASGFTFNWELMGWARQAPGKGLEWVSGIEGPGDVTYYADSVKGRFTISRDNSKNTLYLQMNSLRAEDTAVYYCVKVGKDAKSDYRGQGTLVTVSS
notes: VH dAb, monovalent
